Data on one molecule can be found in patent US20180030127A1 (APRILBIO, published 2018).

In assay [1] the target is T1, human serum albumin (human, UniProt P02768 25-609).
T1 construct: Bought protein; also called HSA; human SA
Put plainly: ELISA, purified soluble Fab, pH 6. The procedure:
(§1) For the monoclonal phage ELISA, the recombinant phage was obtained from positive E. coli clones by phage rescue, and ˜10⁸ CFU/well were added to MaxiSorb ELISA plates (Nunc, Roskilde, Denmark) that were coated with 5 μg/ml HSA, RSA, MSA or BSA. The phage was allowed to bind to the antigens either at pH 6 or at pH 7.4 for 1 h at 37° C. A goat anti-human kappa L Ab-conjugated with HRPO (Sigma-Aldrich) was used as a secondary antibody. The binding signals were visualized with a TMB substrate (BD Science, San Jose, Calif., USA), and the absorbance at 450 nm was measured using an ELISA reader (Bio-Rad, Hercules, Calif., USA). The data represent the average of three experiments standard deviation. For the conventional ELISA, the various antigens [human SA, rat SA, mouse SA, monkey SA (Alpha diagnositic Intl., San Antonio, Tex., USA), canine SA (CUSABIO, Wuhan, Hubei, China). rabbit SA (Sigma-Aldrich), epidermal growth factor receptor (EGFR) (R&D systems, Minneapolis, Minn., USA), epithelial cell adhesion molecule (EpCAM) (R&D systems), IL-15 receptor a (IL-15Ra) (R&D systems), IL-10 (eBioscience, San Diego, Calif., USA), CD16a (R&D systems), c-MET (Sinobiological, Beijing, China)] at 5 μg/ml concentrations were immobilized on the microtiter plates, and the Fab molecules were allowed to bind to the antigens, and detected as above. […]

In assay [2] the target is T1, human serum albumin. Nature of the assay: ELISA, purified soluble Fab on coated HSA. On the technique in general: ELISA stands for enzyme-linked immunosorbent assay.
Assay [3] addresses T2, epidermal growth factor receptor (UniProt P00533 25-645).
T2 construct: also called EGFR
Put plainly: ELISA, soluble Fab, antigen coated at 5 µg/ml.

Another assay has as its target T3, IL-15 receptor a (UniProt Q13261 31-205).
T3 construct: also called IL-15Ra
Put plainly: ELISA, soluble Fab, antigen coated at 5 µg/ml.

The next assay addresses T4, rabbit serum albumin (rabbit, UniProt P49065 25-608).
T4 construct: also called rabbit SA
Nature of the assay: ELISA, soluble Fab, antigen coated at 5 µg/ml.

The target in assay [4] is T5, cynomolgus monkey serum albumin (cynomolgus monkey, UniProt A2V9Z4 25-608).
T5 construct: also called cynomolgus monkey SA; monkey SA
T5 sequence (A2V9Z4 25-608 limits assumed): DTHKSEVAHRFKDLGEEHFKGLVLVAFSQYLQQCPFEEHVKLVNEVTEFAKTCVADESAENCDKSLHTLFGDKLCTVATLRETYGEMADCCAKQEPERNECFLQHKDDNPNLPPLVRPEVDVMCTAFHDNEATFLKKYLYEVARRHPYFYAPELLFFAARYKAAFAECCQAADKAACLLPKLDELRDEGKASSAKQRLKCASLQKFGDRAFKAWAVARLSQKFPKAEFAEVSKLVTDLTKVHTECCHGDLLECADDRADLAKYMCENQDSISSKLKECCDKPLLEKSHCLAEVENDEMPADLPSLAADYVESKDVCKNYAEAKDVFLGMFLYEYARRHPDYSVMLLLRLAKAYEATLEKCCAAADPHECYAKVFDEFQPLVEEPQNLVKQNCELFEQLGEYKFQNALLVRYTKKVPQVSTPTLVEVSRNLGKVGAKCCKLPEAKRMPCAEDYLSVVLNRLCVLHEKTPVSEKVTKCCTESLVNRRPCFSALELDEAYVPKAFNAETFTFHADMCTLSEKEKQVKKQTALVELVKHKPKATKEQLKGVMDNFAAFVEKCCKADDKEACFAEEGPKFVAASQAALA
Nature of the assay: ELISA, soluble Fab, antigen coated at 5 µg/ml.

The target in another assay is c-MET (UniProt P08581 25-932, limits assumed). Nature of the assay: ELISA, soluble Fab, antigen coated at 5 µg/ml.
Chain of c-MET (P08581 25-932 limits assumed): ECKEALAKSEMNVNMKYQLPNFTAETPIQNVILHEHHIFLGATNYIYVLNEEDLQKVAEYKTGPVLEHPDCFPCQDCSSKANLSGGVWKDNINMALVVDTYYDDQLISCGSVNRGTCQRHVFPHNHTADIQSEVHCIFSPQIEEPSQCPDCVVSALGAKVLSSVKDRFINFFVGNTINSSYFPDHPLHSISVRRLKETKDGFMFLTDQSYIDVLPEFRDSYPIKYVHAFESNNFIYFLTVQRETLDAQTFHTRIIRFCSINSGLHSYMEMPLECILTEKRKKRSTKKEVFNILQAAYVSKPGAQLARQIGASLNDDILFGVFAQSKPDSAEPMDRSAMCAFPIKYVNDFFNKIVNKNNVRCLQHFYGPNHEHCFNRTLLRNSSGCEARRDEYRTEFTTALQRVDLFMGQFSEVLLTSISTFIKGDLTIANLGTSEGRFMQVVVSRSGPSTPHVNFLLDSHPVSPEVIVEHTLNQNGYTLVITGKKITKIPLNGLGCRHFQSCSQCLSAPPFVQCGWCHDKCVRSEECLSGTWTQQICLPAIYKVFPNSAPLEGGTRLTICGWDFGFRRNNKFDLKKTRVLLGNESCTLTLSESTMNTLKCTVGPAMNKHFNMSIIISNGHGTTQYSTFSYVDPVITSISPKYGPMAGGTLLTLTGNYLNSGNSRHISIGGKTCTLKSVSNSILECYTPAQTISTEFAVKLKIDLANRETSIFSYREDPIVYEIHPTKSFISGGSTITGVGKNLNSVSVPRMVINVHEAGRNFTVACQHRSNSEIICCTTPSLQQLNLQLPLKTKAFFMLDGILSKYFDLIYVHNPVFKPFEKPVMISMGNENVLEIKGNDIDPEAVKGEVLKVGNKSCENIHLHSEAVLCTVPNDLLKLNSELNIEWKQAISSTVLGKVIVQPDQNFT
Another assay deals with T6, IL-1b (UniProt P01584 117-269, limits assumed).
T6 construct: The identity is uncertain because the two printings differ
Put plainly: ELISA, soluble Fab, antigen coated at 5 µg/ml.

In a further assay the target is CD16a (UniProt P08637 17-208). Put plainly: ELISA, soluble Fab, antigen coated at 5 µg/ml.
Chain of CD16a (P08637 17-208 limits assumed): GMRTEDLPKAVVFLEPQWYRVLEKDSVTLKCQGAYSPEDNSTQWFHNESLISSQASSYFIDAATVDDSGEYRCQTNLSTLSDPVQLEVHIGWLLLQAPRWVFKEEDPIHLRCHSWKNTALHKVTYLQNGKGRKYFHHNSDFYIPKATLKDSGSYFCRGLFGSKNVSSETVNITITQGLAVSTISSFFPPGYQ
A further assay deals with T7, mouse serum albumin (mouse, UniProt P07724 25-608).
T7 construct: Bought protein; also called MSA; mouse SA
T7 sequence (P07724 25-608 limits assumed): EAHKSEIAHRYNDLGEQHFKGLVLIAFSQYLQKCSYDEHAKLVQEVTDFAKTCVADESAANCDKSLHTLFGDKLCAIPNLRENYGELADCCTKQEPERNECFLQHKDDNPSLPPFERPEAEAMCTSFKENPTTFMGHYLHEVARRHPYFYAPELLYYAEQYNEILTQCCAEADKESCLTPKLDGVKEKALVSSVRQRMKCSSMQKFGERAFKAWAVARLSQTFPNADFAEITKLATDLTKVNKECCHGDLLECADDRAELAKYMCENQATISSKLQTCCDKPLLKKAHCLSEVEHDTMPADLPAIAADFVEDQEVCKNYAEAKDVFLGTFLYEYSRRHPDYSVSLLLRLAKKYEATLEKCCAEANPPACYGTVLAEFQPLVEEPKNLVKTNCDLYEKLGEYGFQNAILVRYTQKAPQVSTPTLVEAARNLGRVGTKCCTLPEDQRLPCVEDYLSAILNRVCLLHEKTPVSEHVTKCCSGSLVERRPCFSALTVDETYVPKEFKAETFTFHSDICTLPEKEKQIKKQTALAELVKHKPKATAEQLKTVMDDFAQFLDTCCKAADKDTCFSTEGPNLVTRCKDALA
Put plainly: biolayer interferometry (Octet RED), SL335 on AR2G biosensor, MSA in solution, pH 6; the filing calls the data unreliable; pH 6; left out of Table 6 for lack of reliability. The procedure:
(§2) Real-time binding assays between the purified SL335 and the antigens (human SA, rat SA or mouse SA) were performed using biolayer interferometry with an Octet RED system (ForteBio, Menlo park, Calif., USA) as previously described except that AR2G (Amine Reactive Second-Generation) sensors were used (Costin et al., (2013) J Virol. 87, 52-66). Briefly, the predetermined concentration of SL335 was coupled to kinetics grade AR2G biosensors, and unbound Fab fragments were removed from the surfaces of the sensors by incubating in the kinetics buffer […]. […] The binding and dissociation kinetics were calculated using the Octet QK software package, which fit the observed binding curves to a 1:1 binding model to calculate the association rate constants. The association and dissociation rate constants were calculated using at least three different concentrations of human SA, rat SA or mouse SA. The equilibrium dissociation constants were calculated as the kinetic dissociation rate constant divided by the kinetic association rate constant.
On the technique in general: In BLI a coated tip is dipped into the sample, and binding shifts an interference pattern.

Assay [5] addresses T1, human serum albumin. Nature of the assay: ELISA, purified soluble Fab, pH 7.4. The procedure: as §1
Another assay deals with T8, rat serum albumin (rat, UniProt P02770 25-608).
T8 construct: Bought protein; also called RSA; rat SA
T8 sequence (P02770 25-608 limits assumed): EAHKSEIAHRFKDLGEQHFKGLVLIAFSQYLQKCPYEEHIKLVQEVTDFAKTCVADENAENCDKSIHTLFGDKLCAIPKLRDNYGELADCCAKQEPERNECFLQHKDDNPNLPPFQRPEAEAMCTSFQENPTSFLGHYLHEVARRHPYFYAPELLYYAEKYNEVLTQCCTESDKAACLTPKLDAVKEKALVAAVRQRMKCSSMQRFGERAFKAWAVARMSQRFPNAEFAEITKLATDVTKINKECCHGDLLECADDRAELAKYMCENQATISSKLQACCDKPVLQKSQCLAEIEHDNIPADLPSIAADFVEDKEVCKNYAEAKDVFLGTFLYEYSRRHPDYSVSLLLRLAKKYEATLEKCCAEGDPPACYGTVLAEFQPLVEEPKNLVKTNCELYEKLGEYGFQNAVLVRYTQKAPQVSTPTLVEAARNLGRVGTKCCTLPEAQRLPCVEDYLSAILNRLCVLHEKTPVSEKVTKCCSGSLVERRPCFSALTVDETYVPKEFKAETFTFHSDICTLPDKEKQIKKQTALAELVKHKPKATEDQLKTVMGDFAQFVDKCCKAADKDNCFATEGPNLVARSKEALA
Put plainly: biolayer interferometry (Octet RED), SL335 on AR2G biosensor, RSA in solution, pH 7.4. On the procedure:
as §2
Since SL335 was the best binder among four anti-human SA Fab clones, its cross-reactivity was further analyzed by ELISA. […] The binding affinities of SL335 to human SA, rat SA and mouse SA at pH 6 or pH 7.4 were further measured via biolayer interferometry by passing through different concentration of the antigens on biosensors that were coated with SL335 (see Table 6 below).

As a reminder, the Kd is the free concentration of one partner at which half of the binding sites on the other are occupied at equilibrium, for simple one-to-one binding. For orientation: koff means the first-order rate constant of dissociation. Broadly, the kon is a measure of how fast the partners come together.

T3 sequence (Q13261 31-205 limits assumed): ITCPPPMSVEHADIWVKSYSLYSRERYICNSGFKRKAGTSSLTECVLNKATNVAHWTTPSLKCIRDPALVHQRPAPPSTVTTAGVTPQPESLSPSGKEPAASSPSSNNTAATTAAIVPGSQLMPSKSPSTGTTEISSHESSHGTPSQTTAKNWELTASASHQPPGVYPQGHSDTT
T4 sequence (P49065 25-608 limits assumed): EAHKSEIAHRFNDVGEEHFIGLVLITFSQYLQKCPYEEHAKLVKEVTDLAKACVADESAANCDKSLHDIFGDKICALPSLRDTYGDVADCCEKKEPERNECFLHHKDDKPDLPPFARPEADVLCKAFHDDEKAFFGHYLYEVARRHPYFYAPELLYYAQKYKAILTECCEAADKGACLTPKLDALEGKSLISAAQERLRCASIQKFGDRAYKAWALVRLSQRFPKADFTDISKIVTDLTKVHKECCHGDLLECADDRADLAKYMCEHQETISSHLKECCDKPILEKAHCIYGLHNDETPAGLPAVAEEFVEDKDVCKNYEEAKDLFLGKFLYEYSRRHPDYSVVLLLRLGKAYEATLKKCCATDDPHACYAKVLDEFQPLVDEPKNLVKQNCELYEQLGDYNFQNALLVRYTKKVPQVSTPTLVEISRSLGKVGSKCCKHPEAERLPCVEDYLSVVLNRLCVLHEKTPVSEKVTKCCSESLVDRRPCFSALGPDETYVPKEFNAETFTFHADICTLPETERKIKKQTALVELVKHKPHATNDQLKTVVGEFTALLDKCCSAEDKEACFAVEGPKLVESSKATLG

B1: SL335 (Fab, V domains shown)
VH: QVQLVQSGGGPVKPGGSLRLSCAASGFMFRAYSMNWVRQAPGKGLEWVSSISSSGRYIHYADSVKGRFTISRDNAKNSLYLQMNSLRAEDTAVYYCARETVMAGKALDYWGQGTLVTVSS
VL: ELVLTQSPGTLSLSPGETATLSCRASQSVGSNLAWYQQKPGQAPRLLIYGASTGATGVPARFSGSRSGTDFTLTITSLQPEDFATYYCQQYYSFLAKTFGQGTQLEIKR
notes: Human anti-serum albumin Fab in the classic form (VH+CH1 with Cys233, VL+CLk with Cys214); tested on phage and as soluble Fab purified from E. coli; also called SL335wt; SL335 Fab
Turning to B1, the “fold stronger binding than to rat SA at pH 6” value in the assay with human serum albumin [1] came out at 20 fold. In addition, the “fold stronger binding at pH 6 than at pH 7.4” value in the assay with human serum albumin [2] turned out to be 2 fold. In addition, the binding result is listed as “no binding” in assay [3]; “no binding” with IL-15 receptor a; “no binding” in the assay with rabbit serum albumin; “binds” in [4]; “no binding” with c-MET; “no binding” in the assay with IL-1b. Besides, the binding result with CD16a was “no binding”. The equilibrium dissociation constant (Kd) was ~10 µM with mouse serum albumin and 0.0653 µM with rat serum albumin. In addition, the “fold stronger binding than to rat SA at pH 7.4” value with human serum albumin [5] is 4 fold. Also, the koff in the assay with rat serum albumin turned out to be 0.00282 s⁻¹. For the same molecule, in the assay with rat serum albumin, the kon is 43200 M⁻¹ s⁻¹.
